In data set [1] the target is rhodamine-labeled MetJ (MetJ-A1C-rhodamine) (E. coli) (UniProt P0A8U6). Nature of the data set: AUC.
The data set “AUC” concerns the molecule itself. Kind of data set: AUC.

In the case of “rhodamine-labeled MetJ (MetJ-A1C-rhodamine) (from UniProt P0A8U6 1-105) (natural protein)”, the stoichiometry N in data set [1] was found to be 2.

B1: unlabeled MetJ (methionine repressor protein) (natural protein, E. coli, UniProt P0A8U6 1-105, looked up)
chain: MAEWSGEYISPYAEHGKKSEQVKKITVSIPLKVLKILTDERTRRQVNNLRHATNSELLCEAFLHAFTGQPLPDDADLRKERSDEIPEAAKEIMREMGINPETWEY
On to B1, for which the “stoichiometry N” value in the data set “AUC” came out at 2.

The values above are taken from paper PMC2891263 (Biochemistry, 2010).
